From US5847088A, “Antibodies specific for platelet-activating factor acetylhydrolase” (ICOS Corporation, priority 1995, dated 1998)

Test system: antigen-induced eosinophil recruitment
Assay: Antigen-induced eosinophil recruitment to trachea of OVA-sensitized mice
Format: in vivo, mouse
Conditions: 750 units IV 30 minutes before and 24 hours after aerosolized OVA; 48 hours
Description: The accumulation of eosinophils in the airway is a characteristic feature of late phase immune responses which occur in asthma, rhinitis and eczema. BALB/c mice (Charles River) were sensitized by two intraperitoneal injections consisting of 1 μg of ovalbumin (OVA) in 4 mg of aluminum hydroxide (Imject alum, Pierce Laboratories, Rockford, Ill.) given at a 2 week interval. Fourteen days following the second immunization, the sensitized mice were challenged with either aerosolized OVA or saline as a control.
Prior to challenge mice were randomly placed into four groups, with four mice/group. Mice in groups 1 and 3 were pretreated with 140 μl of control buffer consisting of 25 mM tris, 0.5M NaCl, 1 mM EDTA and 0.1% Tween 80 given by intravenous injection. Mice in groups 2 and 4 were pretreated with 750 units of PAF-AH (activity of 5,500 units/ml given in 140 μl of PAF-AH buffer). Thirty minutes following administration of PAF-AH or buffer, mice in groups 1 and 2 were exposed to aerosolized PBS as described below, while mice in groups 3 and 4 were exposed to aerosolized OVA. Twenty-four hours later mice were treated a second time with either 140 μl of buffer (groups 1 and 3) or 750 units of PAF-AH in 140 μl of buffer (groups 2 and 4) given by intravenous injection.
Eosinophil infiltration of the trachea was induced in the sensitized mice by exposing the animals to aerosolized OVA. […]

B1: PAF-AH: Recombinant human plasma platelet-activating factor acetylhydrolase (beginning at Ile42 of SEQ ID NO:8) expressed in E. coli (protein, UniProt Q13093 22-441, looked up)
Platelet-activating factor …: FDWQYINPVAHMKSSAWVNKIQVLMAAASFGQTKIPRGNGPYSVGCTDLMFDHTNKGTFLRLYYPSQDNDRLDTLWIPNKEYFWGLSKFLGTHWLMGNILRLLFGSMTTPANWNSPLRPGEKYPLVVFSHGLGAFRTLYSAIGIDLASHGFIVAAVEHRDRSASATYYFKDQSAAEIGDKSWLYLRTLKQEEETHIRNEQVRQRAKECSQALSLILDIDHGKPVKNALDLKFDMEQLKDSIDREKIAVIGHSFGGATVIQTLSEDQRFRCGIALDAWMFPLGDEVYSRIPQPLFFINSEYFQYPANIIKMKKCYSPDKERKMITIRGSVHQNFADFTFATGKIIGHMLKLKGDIDSNVAIDLSNKASLAFLQKHLGLHKDFDQWDCLIEGDDENLIPGTNINTTNQHIMLQNSSGIEKYN
eosinophils in submucosal tissue of trachea: very few eosinophils in the submucosal tissue
